Experimental data taken from the DeepSol protein solubility set.

Test: soluble on expression in E. coli; label from the status in PepcDB or PDB records

Row | Sequence | soluble on expression in E. coli
1 | MFIVLNAPVRGRYCAPMTQFASPVLHSLLDTDAYKLHMQQAVFHHYYDVHVAAEFRCRGDDLLGIYADAIREQIQAMQHLRLQDDEYQWLSALPFFKADYLNWLREFRFNPEQVTVSNDNGKLDIRLSGPWREVILWEVPLLAVISEMVHRYRSPQADVAQALDTLESKLVDFSALTAGLDMSRFHLMDFGTRRRFSREVQETIVKRLQQESWFVGTSNYDLARRLSLTPMGTQAHEWFQAHQQISPDLANSQRAALAAWLEEYPDQLGIALTDCITMDAFLRDFGVEFASRYQGLRHDSGDPVEWGEKAIAHYEKLGIDPQSKTLVFSDNLDLRKAVELYRHFSSRVQLSFGIGTRLTCDIPQVKPLNIVIKLVECNGKPVAKLSDSPGKTICHDKAFVRALRKAFDLPHIKKASMAGDPLEHHHHHH | not soluble
2 | MFKAIVSAATLRDALDSVSVLVDECKIRLNEESLSIRAVDPANVGMVDLTLDAAAFESYEAHGGVIGVNLSRLEEVAGMAGAGDLIHLTLDEETRKLNIRIDGLSYTLALIDPDSIRQEPDIPDLDLAANIVLEGTHLDRGIKAADMVSDHIRLRVDGAEETFHIEAEGDTDDVDLSLPPADLISIEAGAADSLFSLDYLKDMNKAIPTDAEVTVELGEEFPVKLHYQIAEGMGTITYMLAPRIQSD | soluble
3 | MFKRETKDFINIDPLQTGGKLTEEARQALLEWGDGYSVCDFCTTGRLDEIKTPPIHDFIHNQLPKFLGCDVARVTNGAREAKFAVMHSLAKKDAWVVMDENCHYSSYVAAERAGLNIALVPKTDYPDYAITPENFAQTIEETKKRGEVVLALITYPDGNYGNLPDVKKIAKVCSEYDVPLLVNGAYAIGRMPVSLKEIGADFIVGSGHKSMAASGPIGVMGMKEEWAEIVLRRSEKYKNKEVELLGCTARGATIITLMASFPHVRERIKRWDEEVEKARRFAAEMEKLGIKQLGDNPHNHDLMFFHAEVLYEISKKAKGGRFFLYRELKSRKIHGIKPGLTRYFKLSTYGLSDEEVDYVLNAFKEIIEKYS | soluble
4 | MFLPKFNPIRSFSPILRAKTLLRYQNRMYLSTEIRKAIEDAIESAPVVLFMKGTPEFPKCGFSRATIGLLGNQGVDPAKFAAYNVLEDPELREGIKEFSEWPTIPQLYVNKEFIGGCDVITSMARSGELADLLEEAQALVPEEEEETKDR | soluble
5 | MFLRLFKYLWPERYLPEIPAQDPFDENPPPCGPGRVGVLLVNLGTPDEPTRGAIRRYLGEFLSDPRVIEIPRYLWMPILHGLVLAMRPKKLAPRYAGIWMEEGSPLLVYSQRQAAGVRQGLAARGVHAEVELAMRYGKPSIPAAITALRERGCDHILAVPLYPQYAASTTATVVDAVTRHAGRLRDQPALRFVKRFHNDPAYVEAQAGRIAEFWQAHGRPQKLVMSFHGLPRYSIELGDPYYRDCLDTARLLRERLGLREDEVEVTFQSRFGSARWLEPYTEPTLAELARQGVTEVDVVCPGFVADCLETLEEISQECRDAFVAAGGRQFRYIPALNDCPPWIEGLTDLVERQLRGWPTGNP | not soluble
6 | MFLSVFELFKIGIGPSSSHTMGPMTAANMFLREIMRCNFLRSSHTGISHIRVYLYGSLAFTGVGHATDRAVILGLLGEEAATVNPDNIDILLEKVTREKKVQPDGHPAYWFNLQSDLIFKRKEVLPGHTNGLAFEGLDADGNVLLRQTYYSIGGGFVVTEDELNCINGNTQSKTSKVPYPFDSARKMLSMAEKSGLSIAEMKRLNEETKMERSALNTGLDNIFSAITKCIDRGLSQEGELPGGLRVSRRAKKLYETLLENQKKNRNYPLLANDWLSVYAIAVNEENAAGGRVVTAPTNGAAGVVPAVLRYYLQFNDNSDQEGIHNFLLTAAAIGGVIKHNASISGAEVGCQGEVGTASSMAAAGLTAVLGGTPAQIENAAEIALEHHLGMTCDPVAGLVQIPCIERNAMGAVKAVTASSLALHGNGKHFVSLDACIETMRQTGHDMSERYKETSKAGLAVNAISC | not soluble
7 | MFNKVSVIGLGYIGLPTAAVLASRGLDVVGVDVNAHAVDTINKGEIHIVEPDLDIVVRSAVMTGKLKATLTAEPADAFLVAVPTPFKGDNHEPDLSYIEAAAKTIAPVLAKGNLVVLESTSPVGTTEKLAQWLAEARPDLTFPQQKGIAADVKIAYCPERVLPGYVLQELVSNDRVIGGVSKACSEKAVALYKTFVKGECIVTNARTAEMAKLTENSFRDVNIAFANELSLVCNKLKINVWELIRLANRHPRVSILNPGPGVGGHCIAVDPWFIVNSCPDEAQLIRTAREVNDGKPHWVVDQVKQAADQFKKPIIACLGLAFKADIDDLRESPALDITKHLAESKVGQLLAVEPNITELPSKLAKQGIELVSLERALELANIVVVLVDHKEFKAADKTEFAKKVVIDTRGVVA | not soluble
8 | MFNTTPINIDKWLKENEGLLKPPVNNYCLHKGGFTVMIVGGPNERTGYHINPTPEWFYQKKGSMLLKVVDETDAEPKFIDIIINEGDSYLLPGNVPHSPVRFADTVGIVVEQDRPGGENDKIRWYCSHCRQVVHESELQMLDLGTQVKEAILDFENDVEKRTCFHCKTLNYARPQSN | soluble
9 | MFPLNFHYEDVLRQDLLLKLNYANVMEVPGLCEIRVVPKAPYNFIIKNGKLAMEIPCGQKFIQTQRGSTGKSFRSNPFLGSNKDKGYVSDLARQSTLRGHGMSNFLVRILTVMSLLDFPVEIRKNSIQFSMETEFCEFSPELEDHFEIFEHIRGFNVTIITSANTQDETLLLWSGFLQKDEGETQLEHHHHHH | not soluble
10 | MFPVNCYVLWDDTKEAVVIDPGCFYEEEKQALKKFILTNELTVKHLLNTHLHLDHIFGNPFMLKEFGLSAEANKADEFWIDEAPKQSRMFGFQLQEEPVPLGKYLHDGDIITFGHTKLEAIHVPGHSPGSLVYYCKEENCMFSGDVLFQGSIGRADLSGGNFDELIDHICSRLFVLPNETVVYPGHGAPTTIGMEKAENPFFR | not soluble
11 | MFRAMSTRKIHGGYEKLGDEEARLKRVSSVPASVYGHSRNPVQEVKKTPTAKPTGGSVHPLFSFFDVHFQRKKKNTAKKKSLATAKPEFARYMEYVREGGVWDPSSNAPVIHYR | not soluble
12 | MFRISLEEFEGPLDLLLFFIKRDELDIYNIPISKITGDFIAYIHAMRRLNLEVAAEFIYMASMLMSIKARMLLPRAEPVDGEADEFDPRTELVQRLLEYKRIKEGASELELMALDRERMFPRGYFEELEPAVIDEMDEPVNRPTLYHLMLAYQSVLDNMPKVRTQNVTDAPVTVEEQSALIMARLGERLQVSFTSLFQEFREAIVIVVTFLAVLELCRNRKISVIVKEGVNDFWISQRDHAE | soluble
13 | MFRLEDFNFHNKTVFLRVDLNSPMKDGKIISDARFKAVLPTIRYLIESGAKVVIGTHQGKPYSEDYTTTEEHARVLSELLDQHVEYIEDIFGRYAREKIKELKSGEVAILENLRFSAEEVKNKPIEECEKTFLVKKLSKVIDYVVNDAFATAHRSQPSLVGFARIKPMIMGFLMEKEIEALMRAYYSKDSPKIYVLGGAKVEDSLKVVENVLRRERADLVLTGGLVANVFTLAKGFDLGRKNVEFMKKKGLLDYVKHAEEILDEFYPYIRTPVDFAVDYKGERVEIDLLSENRGLLHQYQIMDIGKRTAEKYREILMKARIIVANGPMGVFEREEFAIGTVEVFKAIADSPAFSVLGGGHSIASIQKYGITGITHISTGGGAMLSFFAGEELPVLRALQISYEKFKEVVK | soluble
14 | MFRTAETSRDTLITTAYRLHRTRWRILEPYRRLKNALKKLQEDYLKSKEANALMRYVKLGQSVREVAMLEKQYWKLLNIPAQEGTEDANCYVVKIIELLEDTPTQLPPTRGIGALLQSTIGKPAEANVDTVLHDSLKARKSEDLVKECEGLYAQLYRLTKKYLGLRRLIKELHDKYEATRMFPIVPRYAMLKKMIKATLRAPEFADICHEQTE | not soluble
